This note sets out measurements from patent publication US20170296650A1 (Novartis, published 2017).

B1: 8J16 (antibody, V domains shown)
VH: QVQLQESGPGLVKPSETLSLTCSVSGGFTSSYYWSWIRQAPGKGLEWIGYVYYGESTDYNPSLKSRATISIDTSKNQFSLKLSSVTAADTAVYYCAREVDKRGFDYWGQGALVTVSS
VL: EIVLTQSPGTLSLSPGERATLSCRASQSVSGGYLAWYQQEPGQAPRLVIYGASSRATGIPDRFSASGSGTDFTLTITRLEPEDFAVYYCQQYGRTPLTFGGGTKVEIK
notes: human IgG; also called 8J16-biotin
B2: 7I13 (antibody, V domains shown)
VH: QVQLVESGGGVVQPGRSLRLSCAASGFTFSNYGMHWVRQGPGKGLEWVAVISYDASSKYYTDSVQGRFTISRDNSKNTLFLQMNSLRGEDTAVYYCAKALRYLDWFLSDPFDYWGQGTLVTVSS
VL: EIVLTQSPGTLSLSPGERATLSCRASQSVSSDFLAWYQQKPGQAPRLLIYGASSRATGIPDRFSGSGSGTDFTLTISRLEPEDFAVYYCQQYAASPPFGQGTRLEIK
notes: human IgG; also called 7113
B3: 2C12 (antibody, V domains shown)
VH: QITLRESGPTLVKPTQTLTLTCTFSGFSLNTNGVGVGWIRQPPGKALEWLALIYWNGNEGYSPSLKSRLTITKDTSKNQVVLTMTNMDPVDTATYYCVHWPQGLTTVTRLAFDIWGQGTMVTVSS
VL: QSALTQPRSVSGSPGQSVTISCTGTTSDVGRYNFVSWYQQHPGKAPKLLMYDVSQRPSGVPSRFSGSKSGNTASLTISGLQAEDEAVFYCCSYAGGNFFSYVFGTGTKVTVL
notes: human IgG; also called 2C12-biotin
B4: 7B13 (antibody, V domains shown)
VH: QVQLVESGGGVVQPGGSLRLSCAASGFSFSNYGMHWVRQAPGKGLEWVALIPSDGNYQYYTDSVKGRFTVSRDNSRNTLYLQMKSLRAEDTARYHCAHLGGGLFDFWGQGTLVTVSS
VL: QSALNQPRSVSGSPGQSVSISCTGSSSDVGGYEFVSWYQHHPGKAPKLIIYDVDKRPSGVPDRFSGSRSGDTASLTISGLQAEDEADYYCYSSADTWVFGGGTKLTVL
notes: human IgG
B5: 9I6 (antibody, V domains shown)
VH: EVQLVQSGAEVKKPGESLKISCRESGDTFPAYWIAWVRQMPGKGLEWMGIIYPIDSETTYSPSFQGQVTISADKSINTAYLQWSSLKASDSAIYYCARGTSTGLREAFHIWGQGTMVTVSS
VL: DVVMTQSPLSLAVTLGQPAYISCRSSQSLGYSDGNTYLNWFQQRPGQSPRRLIYEVSNRDSGVPDRFSGSGSGTDFTLKISRVEAEDVGTYYCMQGTHWPPMCSFGQGTKLEIK
notes: human IgG; also called 9I6-biotin; 916
B6: 8C15 (antibody, V domains shown)
VH: QVQLQESGPGLVKPSETLSLTCTVSGGSIRSYYWSWIRQPPGKGLEWIGHIYYSGNTNYSPSLQSRVTISLDTPKNQFSLRLSSVTAADTAVYYCARHDVIVVRGVFDVWGQGTVVTVSS
VL: QSALTQPASVSGSPGQSITISCTGTSSDIGTYNLVSWYQQHPGKAPKVLIYDGSKRPSGVSSRFSASKSGNTASLTISGLQAEDETDYYCCSYAGTSDFFVVFGGGTKLTVL
notes: human IgG; also called 8C15-biotin

Where only a bound is given, the exact number is not on record here.

T1 sequence (P16837 whole entry, chain 1 of 2): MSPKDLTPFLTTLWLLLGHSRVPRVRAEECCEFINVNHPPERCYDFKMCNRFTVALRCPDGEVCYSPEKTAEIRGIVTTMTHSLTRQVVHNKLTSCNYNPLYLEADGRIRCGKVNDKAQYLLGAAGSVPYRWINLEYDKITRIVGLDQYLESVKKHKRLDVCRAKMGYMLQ
T1 sequence (P16772 whole entry, chain 2 of 2): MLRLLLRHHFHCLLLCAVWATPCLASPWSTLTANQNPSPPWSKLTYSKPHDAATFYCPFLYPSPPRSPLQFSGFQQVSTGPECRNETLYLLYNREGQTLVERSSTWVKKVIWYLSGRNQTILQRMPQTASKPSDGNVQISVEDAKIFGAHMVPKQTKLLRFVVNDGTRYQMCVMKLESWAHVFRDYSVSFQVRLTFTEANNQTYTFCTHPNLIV

One experiment concerns the target T1, hCMV UL128 + UL130 + UL131A (HEK293T co-transfectant) (hCMV, UniProt P16837 1-171; P16772 1-214). Description: cell-based or functional assay.
As for B1, the “90% neutralization VR1814, ARPE” value turned out to be 0.0008 µg/mL and the “90% neutralization VR1814, MRC-9” value was greater than 10 µg/mL.

For B2, the “90% neutralization VR1814, ARPE” value turned out to be 0.008 µg/mL and the “90% neutralization VR1814, MRC-9” value is greater than 10 µg/mL.

With B3, the “90% neutralization VR1814, ARPE” value was determined as 0.006 µg/mL and the “90% neutralization VR1814, MRC-9” value was greater than 10 µg/mL.

For the molecule B4, the “90% neutralization VR1814, ARPE” value was 0.003 µg/mL and the “90% neutralization VR1814, MRC-9” value was greater than 10 µg/mL.

B5: the “90% neutralization VR1814, ARPE” value is 0.0007 µg/mL and the “90% neutralization VR1814, MRC-9” value was greater than 10 µg/mL.

Take B6: the “90% neutralization VR1814, ARPE” value was found to be 0.0025 µg/mL and the “90% neutralization VR1814, MRC-9” value was greater than 10 µg/mL.

A further experiment addresses T2, hCMV gH + gL + UL128 + UL130 + UL131A (5-member complex; HEK293T co-transfectant) (hCMV, UniProt P12824 24-743; P16832 31-278; P16837 1-171; P16772 1-214).
T2 construct: whole, on cells; in the functional rows it stands for the complex on virions or transduced cells of the strain or isolate named in the readout; also called gH/gL/UL128-131A complex; pentameric complex
Description: cell competition; competitor 2F4-biotin.
As for B1, the “Inhibition of binding (%)” value was 0%.

Take B3: the “Inhibition of binding (%)” value was 0%.

As for B5, the “Inhibition of binding (%)” value is 0%.

In the next experiment the target is T2, hCMV gH + gL + UL128 + UL130 + UL131A …. Description: cell competition; competitor 2C12-biotin.
In the case of B1, the “Inhibition of binding (%)” value came out at 100%.

Consider B2, for which the “Inhibition of binding (%)” value was 0%.

As to B3, the “Inhibition of binding (%)” value is 100%.

With B4, the “Inhibition of binding (%)” value was determined as 100%.

Turning to B5, the “Inhibition of binding (%)” value is 100%.

With B6, the “Inhibition of binding (%)” value was found to be 100%.

The next experiment has the same target. Briefly: cell competition; competitor 4N10-biotin.
As to B3, the “Inhibition of binding (%)” value is 0%.

The target is the same in a further experiment. Description: cell competition; competitor 9I6-biotin.
On to B1, for which the “Inhibition of binding (%)” value came to 70%.

For the molecule B2, the “Inhibition of binding (%)” value came out at 0%.

In the case of B3, the “Inhibition of binding (%)” value is 100%.

For the molecule B4, the “Inhibition of binding (%)” value amounted to 100%.

For the molecule B5, the “Inhibition of binding (%)” value is 100%.

B6: the “Inhibition of binding (%)” value worked out at 100%.

The next experiment shares this target. Briefly: cell competition; competitor 10F7-biotin.
For the molecule B3, the “Inhibition of binding (%)” value amounted to 0%.

The next experiment shares this target. Description: cell competition; competitor 6G4-biotin.
As to B1, the “Inhibition of binding (%)” value is 100%.

Turning to B2, the “Inhibition of binding (%)” value was 0%.

With B3, the “Inhibition of binding (%)” value was found to be 100%.

For the molecule B4, the “Inhibition of binding (%)” value amounted to 100%.

B5: the “Inhibition of binding (%)” value came out at 100%.

Consider B6, for which the “Inhibition of binding (%)” value is 100%.

The next experiment has the same target. Description: cell competition; competitor 8C15-biotin.
As for B1, the “Inhibition of binding (%)” value is 100%.

Take B2: the “Inhibition of binding (%)” value is 0%.

For B3, the “Inhibition of binding (%)” value amounted to 100%.

With B4, the “Inhibition of binding (%)” value was 100%.

Turning to B5, the “Inhibition of binding (%)” value stood at 100%.

Turning to B6, the “Inhibition of binding (%)” value was determined as 100%.

The target of another experiment is T1, hCMV UL128 + UL130 + UL131A (HEK293T …). Briefly: cell-based or functional assay. The source holds these as a separate data set.
With B1, the “50% neutralization VR1814, ARPE” value is less than 0.001 µg/mL and the “50% neutralization VR1814, MRC-9” value is greater than 2 µg/mL.

Regarding B2, the “50% neutralization VR1814, ARPE” value was less than 0.01 µg/mL and the “50% neutralization VR1814, MRC-9” value is greater than 2 µg/mL.

As to B3, the “50% neutralization VR1814, ARPE” value was less than 0.01 µg/mL and the “50% neutralization VR1814, MRC-9” value is no more than 2 µg/mL.

For the molecule B4, the “50% neutralization VR1814, ARPE” value was less than 0.001 µg/mL and the “50% neutralization VR1814, MRC-9” value is greater than 2 µg/mL.

As for B5, the “50% neutralization VR1814, ARPE” value is less than 0.001 µg/mL and the “50% neutralization VR1814, MRC-9” value is greater than 2 µg/mL.

Consider B6, for which the “50% neutralization VR1814, ARPE” value is less than 0.001 µg/mL and the “50% neutralization VR1814, MRC-9” value was greater than 2 µg/mL.

Another experiment deals with T2, hCMV gH + gL + UL128 + UL130 + UL131A …. Briefly: cell competition; competitor 8J16-biotin.
Take B1: the “Inhibition of binding (%)” value was 100%.

Regarding B2, the “Inhibition of binding (%)” value amounted to 0%.

For B3, the “Inhibition of binding (%)” value amounted to 100%.

Consider B4, for which the “Inhibition of binding (%)” value was determined as 100%.

B5: the “Inhibition of binding (%)” value was 100%.

As for B6, the “Inhibition of binding (%)” value came out at 100%.

For the next experiment the target is unchanged. Briefly: cell competition; competitor 5A2-biotin.
With B3, the “Inhibition of binding (%)” value amounted to 0%.

For a further experiment the target is unchanged. Briefly: cell competition; competitor 8I21-biotin.
In the case of B1, the “Inhibition of binding (%)” value is 0%.

As for B2, the “Inhibition of binding (%)” value was determined as 0%.

For the molecule B3, the “Inhibition of binding (%)” value is 0%.

Take B4: the “Inhibition of binding (%)” value came to 0%.

Consider B5, for which the “Inhibition of binding (%)” value came out at 0%.

For the molecule B6, the “Inhibition of binding (%)” value turned out to be 0%.

A further experiment has the same target. Briefly: cell competition; competitor 1F11-biotin.
In the case of B1, the “Inhibition of binding (%)” value was 0%.

For the molecule B2, the “Inhibition of binding (%)” value turned out to be 0%.

As to B3, the “Inhibition of binding (%)” value is 0%.

In the case of B5, the “Inhibition of binding (%)” value is 0%.

A further experiment has the same target. Description: cell competition; competitor 15D8-biotin.
In the case of B3, the “Inhibition of binding (%)” value was found to be 0%.

A further experiment shares this target. Briefly: cell competition; competitor 4I22-biotin.
On to B1, for which the “Inhibition of binding (%)” value is 0%.

For B3, the “Inhibition of binding (%)” value was 0%.

Regarding B5, the “Inhibition of binding (%)” value was 0%.

As for B6, the “Inhibition of binding (%)” value was 0%.
